In PMC7031059:

Molecular target: PpTCP20-GST (Prunus persica var. nectarina cv. …, UniProt A0A251Q833 1-310)
Experiment: EMSA

Row | Binder | binding result
1 | 6T (PpDAM6 promoter site-II) (dsDNA) DNA 1: GGTGGGCCCAATCAAGTGACATGACAGCGA DNA 2: TCGCTGTCATGTCACTTGATTGGGCCCACC | binds
2 | ABF2-F (PpABF2 promoter TBS) (dsDNA) DNA 1: ACCTAACCTAAGTGGGACCATGCCCTTTTT DNA 2: AAAAAGGGCATGGTCCCACTTAGGTTAGGT | binds
3 | 6mT (GGGCCC to AAATTT) (dsDNA) DNA 1: GGTAAATTTAATCAAGTGACATGACAGCGA DNA 2: TCGCTGTCATGTCACTTGATTAAATTTACC | no binding
4 | 5mT2 (GGG to TTT) (dsDNA) DNA 1: CATGTGTCATGGTTTTCTCAATCAAGTGGC DNA 2: GCCACTTGATTGAGAAAACCATGACACATG | no binding
5 | 5T2 (dsDNA) DNA 1: CATGTGTCATGGTGGGCTCAATCAAGTGGC DNA 2: GCCACTTGATTGAGCCCACCATGACACATG | binds
